Article PMC11326354, “Mechanism of human α3β GlyR modulation in inflammatory pain and 2, 6-DTBP interaction” (Research Square, 2024)
Substitutions are numbered along the chain they refer to. In names and notes the source's numbering stands.

B1: human glycine receptor α3 subunit, α3em construct (receptor, UniProt O75311-1 34-464, looked up)
chain: ARSRSAPMSPSDFLDKLMGRTSGYDARIRPNFKGPPVNVTCNIFINSFGSIAETTMDYRVNIFLRQKWNDPRLAYSEYPDDSLDLDPSMLDSIWKPDLFFANEKGANFHEVTTDNKLLRIFKNGNVLYSIRLTLTLSCPMDLKNFPMDVQTCIMQLESFGYTMNDLIFEWQDEAPVQVAEGLTLPQFLLKEEKDLRYCTKHYNTGKFTCIEVRFHLERQMGYYLIQMYIPSLLIVILSWVSFWINMDAAPARVALGITTVLTMTTQSSGSRASLPKVSYVKAIDIWMAVCLLFVFSALLEYAAVNFVSRQHKELLRFRRKRKNKTEAFDMDDEVRESRFSFTAYGMGPCLQAKDGMTPKGPNHPVQVMPKSPDEMRKVFIDRAKKIDTISRACFPLAFLIFNIFYWVIYKILRHEDIHQQQD
notes: glycine receptor α3 subunit, human, NCBI NP_006520.2; 9 residues of the M3/M4 loop (A329-S337) deleted; the model description counts 422 aa in all, from A1 to D431; Four copies of this subunit stand with one β subunit in the pentamer; also called GlyR α3
B2: human glycine receptor α3 subunit, α3S346Eem construct (phosphorylation mimic) (receptor, UniProt O75311-1 34-464, looked up)
chain: B1 chain with S337E
notes: glycine receptor α3 subunit, human, NCBI NP_006520.2; α3em (A329-S337 deleted) with S346E; the model description counts 422 aa in all, from A1 to D431; Four copies of this subunit stand with one β subunit in the pentamer; also called α3emS346E
B3: human glycine receptor α3 subunit, α3S346E_(FRET) construct (receptor, UniProt O75311-1 34-464, looked up)
chain: B1 chain with C41V, S337E
modifications: cysteine-reactive dye (LD555-MAL or LD655-MAL) at C358
notes: glycine receptor α3 subunit, human, NCBI NP_006520.2; α3S346Eem (A329-S337 deleted, S346E) with C41V and an A1 tag inserted between S380 and P381; Stood in the smFRET assay as part of the α3_(FRET)S346Eβ_(FRET) pentamer, which was held on the glass by the GFP in β_(FRET) (βem with C115S); also called α3_(FRET)S346E
B4: human glycine receptor α3 subunit, α3_(FRET) construct (receptor, UniProt O75311-1 34-464, looked up)
chain: B1 chain with C41V
modifications: cysteine-reactive dye (LD555-MAL or LD655-MAL) at C358
notes: glycine receptor α3 subunit, human, NCBI NP_006520.2; α3em (A329-S337 deleted) with C41V and an A1 tag inserted between S380 and P381; Stood in the smFRET assay as part of the α3_(FRET)β_(FRET) pentamer, which was held on the glass by the GFP in β_(FRET) (βem with C115S); also called α_(FRET)

What was measured:
[1] = molecular target: the molecule itself; test: cryo-EM structure; heteromeric GlyR in 0.06% digitonin, 20 mM Tris-HCl pH 8.0, 200 mM NaCl, 2 mM glycine
[2] = molecular target: human glycine receptor β subunit, βem construct (human); test: as above
[3] = molecular target: human glycine receptor β subunit, βem construct (human); test: cryo-EM structure; heteromeric GlyR reconstituted in saposin nanodisc with brain polar lipids extract, 20 mM Tris-HCl pH 8.0, 200 mM NaCl, 2 mM glycine
[4] = molecular target: human glycine receptor β subunit, βem construct (human); test: cryo-EM structure; heteromeric GlyR in 0.06% digitonin, 2 mM glycine, with 500 μM 2, 6-DTBP throughout the purification and another 500 μM added before grid freezing
[5] = molecular target: the molecule itself; test: FRET or BRET; TIRF-based single-molecule FRET between LD555 and LD655 at C358 of different α3 subunits; labelled GlyR (0.7 nM) held on NeutrAvidin/biotin anti-GFP antibody-coated glass by the GFP in β; 50 mM HEPES-NaOH pH 7.4, 150 mM NaCl, 10 mM MgCl2, 22 °C; apo, with 2 mM glycine, with 2 mM glycine and 500 μM 2, 6-DTBP

Sequence of human glycine receptor β subunit, βem construct (human) (P48167 whole entry): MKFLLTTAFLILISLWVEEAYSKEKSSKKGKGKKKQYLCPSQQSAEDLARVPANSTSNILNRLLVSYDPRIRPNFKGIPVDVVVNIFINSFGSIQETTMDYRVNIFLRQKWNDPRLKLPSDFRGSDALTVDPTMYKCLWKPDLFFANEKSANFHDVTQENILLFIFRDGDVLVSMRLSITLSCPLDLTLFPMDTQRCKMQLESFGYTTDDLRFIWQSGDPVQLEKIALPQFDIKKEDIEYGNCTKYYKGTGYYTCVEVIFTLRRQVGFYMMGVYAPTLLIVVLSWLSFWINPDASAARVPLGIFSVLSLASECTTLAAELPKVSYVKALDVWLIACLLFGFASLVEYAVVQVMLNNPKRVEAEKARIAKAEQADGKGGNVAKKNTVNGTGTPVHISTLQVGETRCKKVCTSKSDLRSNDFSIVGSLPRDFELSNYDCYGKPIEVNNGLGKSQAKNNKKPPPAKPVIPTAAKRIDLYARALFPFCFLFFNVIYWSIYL

| Binder | binding result [1] | stoichiometry N [2] | stoichiometry N [3] | stoichiometry N [4] | binding result [5] |
| --- | --- | --- | --- | --- | --- |
| B1 | binds | 4 α3 per β | 4 α3 per β |  |  |
| B2 | binds | 4 α3 per β |  | 4 α3 per β |  |
| B3 |  |  |  |  | binds |
| B4 |  |  |  |  | binds |
